Assay results: US20240059799A1 (Pfizer, published 2024)
Positions count from the first letter of the chain named. Blank lines part the entries; values can stand above or below the binder they belong to.

Key:
recombinant human TL1A [1] = biological target: T1, recombinant human TL1A (human, UniProt O95150 71-251); test: SPR, recombinant human TL1A
T1 construct: Homotrimeric cytokine; biotinylated with Sulfo-NHS-biotin where captured for SPR, coated unlabelled in ELISA, soluble in bioassays; also called TNFSF15
T1 chain: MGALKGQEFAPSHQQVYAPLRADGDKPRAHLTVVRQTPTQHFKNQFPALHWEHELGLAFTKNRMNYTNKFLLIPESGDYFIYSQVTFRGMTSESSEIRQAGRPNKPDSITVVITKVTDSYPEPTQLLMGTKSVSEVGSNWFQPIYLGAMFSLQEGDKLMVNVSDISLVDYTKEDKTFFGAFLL

[2] = biological target: T2, recombinant cynomolgus monkey TL1A (cynomolgus monkey, UniProt O95150 72-251 (human entry)); test: SPR 37 C, biotinylated TL1A captured, antibody injected
T2 construct: biotinylated with Sulfo-NHS-biotin and captured for SPR
T2 chain: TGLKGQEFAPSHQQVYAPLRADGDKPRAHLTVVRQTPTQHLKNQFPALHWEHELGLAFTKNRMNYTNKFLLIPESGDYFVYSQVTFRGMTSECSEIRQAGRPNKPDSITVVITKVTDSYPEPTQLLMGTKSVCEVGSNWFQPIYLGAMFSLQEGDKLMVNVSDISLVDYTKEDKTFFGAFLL
Description: (§1) For these analyses, kinetic assays were conducted at 37° C. using a collection rate of 10 Hz on a Biacore™ T200 instrument (GE Healthcare). […] The association phase was 90 seconds, and the dissociation phases were 1600 seconds over human, cynomolgus monkey and rabbit TL1A and 180 seconds for mouse and rat TL1A.

recombinant mouse TL1A = biological target: T3, recombinant mouse TL1A (mouse, UniProt Q5UBV8 75-252); test: as above
T3 construct: biotinylated with Sulfo-NHS-biotin and captured for SPR
T3 chain: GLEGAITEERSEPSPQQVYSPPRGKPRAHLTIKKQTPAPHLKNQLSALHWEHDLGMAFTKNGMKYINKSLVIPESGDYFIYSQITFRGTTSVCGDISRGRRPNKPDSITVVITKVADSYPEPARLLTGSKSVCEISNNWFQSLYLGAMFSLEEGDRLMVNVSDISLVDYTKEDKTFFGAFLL
Description: as §1

recombinant human TL1A [3] = biological target: T1, recombinant human TL1A; test: as above
Description: as §1

recombinant rat TL1A [4] = biological target: T4, recombinant rat TL1A (rat, UniProt Q8K3Y7 76-252); test: as above
T4 construct: biotinylated with Sulfo-NHS-biotin and captured for SPR
T4 sequence: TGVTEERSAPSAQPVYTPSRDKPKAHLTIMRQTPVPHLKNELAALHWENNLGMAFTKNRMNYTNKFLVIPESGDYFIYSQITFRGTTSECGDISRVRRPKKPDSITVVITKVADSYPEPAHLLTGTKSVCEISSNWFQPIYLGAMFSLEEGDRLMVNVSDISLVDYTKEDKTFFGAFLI
Description: as §1

recombinant human TL1A [5] = biological target: T1, recombinant human TL1A; test: cell-based or functional assay
recombinant rat TL1A [6] = biological target: T4, recombinant rat TL1A; test: SPR 37 C, biotinylated TL1A captured, antibody injected; approximate KD
Description: as §1

bovine serum albumin = biological target: T5, bovine serum albumin (bovine, UniProt P02769 25-607); test: direct binding ELISA on plate-coated BSA (1 ug/mL), anti-human IgG-Fc HRP, OD450
T5 construct: also called BSA
Description: (§2) For the direct binding ELISA method to HSA or BSA, 96-well high binding plates (Corning, product number 3590) were coated with 1 μg/mL recombinant HSA or BSA in 100 μL/well in PBS overnight at 4° C. Plates were then blocked in PBS+0.02% casein solution and washed with PBS+0.05% Tween-20 following standard ELISA protocol. […] Plates were washed with PBS+0.05% Tween-20 following standard ELISA protocol, and goat anti-human IgG-Fc HRP conjugated secondary antibody (Pierce, #31413) diluted to 1:10,000 in assay buffer was added to plates and incubated for 1 hour at room temperature. Next, the plates were washed with PBS+0.05% Tween-20 following standard ELISA protocol, and then TMB substrate (BioFX Laboratories, catalog number TMBW-0100-01) was added to plates.
(§3) Reactions were stopped after approximately 5 minutes by adding 0.18 M ortho-phosphoric acid to each well and absorbance was read at 450 nm. […] For this method, samples diluted to 0.3 mg/mL were dispensed into the sample tray of a MicroCal VP-Capillary DSC with Autosampler (Malvern Instruments, Inc.), equilibrated for 5 minutes at 10° C. and then scanned up to 110° C. at a rate of 100° C. per/hour. A filtering period of 16 seconds was selected. Raw data was baseline corrected and the protein concentration was normalized. Origin Software 7.0 (Origin Lab Corporation, Northampton, MA) was used to fit the data to an MN2-State Model with an appropriate number of transitions.

human serum albumin = biological target: T6, human serum albumin (human, UniProt P02768 25-609); test: direct binding ELISA on plate-coated HSA (1 ug/mL), anti-human IgG-Fc HRP, OD450
T6 construct: also called HSA
Description: as §2, §3

cynomolgus monkey IL-12 = biological target: T7, cynomolgus monkey IL-12 (cynomolgus monkey); test: SPR 37 C, antibody captured by anti-human Fc, cytokine injected
T7 construct: Heterodimer p40/p35; Whole entries as named; also called IL-12 Cyno
T7 chain 1: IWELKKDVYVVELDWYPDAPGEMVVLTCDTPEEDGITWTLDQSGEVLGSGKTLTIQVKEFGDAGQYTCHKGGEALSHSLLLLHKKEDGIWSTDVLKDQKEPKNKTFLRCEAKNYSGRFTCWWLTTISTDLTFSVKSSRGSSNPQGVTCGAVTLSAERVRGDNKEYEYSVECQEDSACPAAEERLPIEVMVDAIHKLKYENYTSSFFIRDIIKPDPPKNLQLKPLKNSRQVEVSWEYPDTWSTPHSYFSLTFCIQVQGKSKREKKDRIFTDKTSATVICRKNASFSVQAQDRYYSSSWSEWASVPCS
T7 chain 2: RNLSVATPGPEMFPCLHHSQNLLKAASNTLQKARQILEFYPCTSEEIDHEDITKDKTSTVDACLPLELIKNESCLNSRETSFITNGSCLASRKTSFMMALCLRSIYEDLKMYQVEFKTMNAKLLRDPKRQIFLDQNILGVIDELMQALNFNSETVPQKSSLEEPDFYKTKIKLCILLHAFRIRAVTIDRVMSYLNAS
Description: (§4) For these analyses, kinetic assays were conducted at 37° C. using a collection rate of 10 Hz on a BIAcore™ T200 instrument (GE Healthcare). An anti-human IgG antibody (anti-human Fc, catalog number 10-005-098, Jackson ImmunoResearch) was amine coupled to all four flow cells of a carboxymethylated dextran coated sensor chip (GE Healthcare) using the manufacturer's recommended protocol.

human IL-12 = biological target: T8, human IL-12 (human, UniProt P29460 23-328; P29459 23-219); test: as above
T8 construct: Heterodimer p40/p35; also called IL-12 Human
T8 sequence 1: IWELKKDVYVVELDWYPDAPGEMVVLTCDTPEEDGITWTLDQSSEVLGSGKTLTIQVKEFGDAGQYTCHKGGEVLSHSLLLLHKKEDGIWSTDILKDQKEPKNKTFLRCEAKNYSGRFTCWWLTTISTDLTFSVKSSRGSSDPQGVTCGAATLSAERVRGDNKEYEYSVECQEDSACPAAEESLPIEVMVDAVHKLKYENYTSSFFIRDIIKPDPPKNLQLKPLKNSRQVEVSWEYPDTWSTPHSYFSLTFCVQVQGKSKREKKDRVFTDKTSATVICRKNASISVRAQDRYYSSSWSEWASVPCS
T8 sequence 2: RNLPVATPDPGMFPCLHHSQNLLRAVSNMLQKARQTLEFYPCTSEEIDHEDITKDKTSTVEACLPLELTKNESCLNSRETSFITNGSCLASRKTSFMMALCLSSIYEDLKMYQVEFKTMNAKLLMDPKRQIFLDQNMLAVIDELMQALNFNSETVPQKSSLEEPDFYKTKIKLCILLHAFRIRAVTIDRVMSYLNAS
Description: as §4

cynomolgus monkey IL-23 = biological target: T9, cynomolgus monkey IL-23 (cynomolgus monkey, limits assumed); test: as above
T9 construct: Heterodimer p40/p19; Whole entries as named; also called IL-23 Cyno
T9 chain 1: T7 chain 1
T9 chain 2: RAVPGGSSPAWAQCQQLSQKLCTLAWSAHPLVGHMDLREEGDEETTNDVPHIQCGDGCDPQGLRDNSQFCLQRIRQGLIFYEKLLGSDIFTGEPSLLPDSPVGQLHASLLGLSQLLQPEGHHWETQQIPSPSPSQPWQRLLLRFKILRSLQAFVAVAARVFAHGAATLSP
Description: as §4

human IL-23 = biological target: T10, human IL-23 (human, UniProt P29460 23-328; Q9NPF7 20-189); test: as above
T10 construct: Heterodimer p40/p19; Whole entries as named; also called IL-23 Human; recombinant human IL-23
T10 sequence 1: T8 sequence 1
T10 sequence 2: T9 chain 2 with A12T, R75H, P131L
Description: as §4

recombinant human TL1A [7] = biological target: T1, recombinant human TL1A; test: cell-based or functional assay
recombinant human TL1A [8] = biological target: T1, recombinant human TL1A; test: competition ELISA, coated TL1A, competitor bio-TL1A-0002
[9] = biological target: T11, full-length human TL1A on CHO-K1 cells (human, UniProt O95150 1-251); test: flow cytometry, CHO-K1 cells expressing human TL1A, 133 nM; cells, antibody at 133 nM
T11 construct: whole, on cells; also called cells over-expressing human TL1A
T11 sequence (looked up): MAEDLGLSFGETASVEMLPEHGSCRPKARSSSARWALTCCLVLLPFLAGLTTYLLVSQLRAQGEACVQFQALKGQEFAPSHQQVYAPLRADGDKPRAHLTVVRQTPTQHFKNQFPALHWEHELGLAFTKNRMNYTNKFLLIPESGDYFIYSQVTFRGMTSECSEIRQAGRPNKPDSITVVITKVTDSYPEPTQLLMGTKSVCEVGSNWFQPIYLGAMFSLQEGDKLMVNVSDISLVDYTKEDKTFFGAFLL

T5 sequence (P02769 25-607 limits assumed): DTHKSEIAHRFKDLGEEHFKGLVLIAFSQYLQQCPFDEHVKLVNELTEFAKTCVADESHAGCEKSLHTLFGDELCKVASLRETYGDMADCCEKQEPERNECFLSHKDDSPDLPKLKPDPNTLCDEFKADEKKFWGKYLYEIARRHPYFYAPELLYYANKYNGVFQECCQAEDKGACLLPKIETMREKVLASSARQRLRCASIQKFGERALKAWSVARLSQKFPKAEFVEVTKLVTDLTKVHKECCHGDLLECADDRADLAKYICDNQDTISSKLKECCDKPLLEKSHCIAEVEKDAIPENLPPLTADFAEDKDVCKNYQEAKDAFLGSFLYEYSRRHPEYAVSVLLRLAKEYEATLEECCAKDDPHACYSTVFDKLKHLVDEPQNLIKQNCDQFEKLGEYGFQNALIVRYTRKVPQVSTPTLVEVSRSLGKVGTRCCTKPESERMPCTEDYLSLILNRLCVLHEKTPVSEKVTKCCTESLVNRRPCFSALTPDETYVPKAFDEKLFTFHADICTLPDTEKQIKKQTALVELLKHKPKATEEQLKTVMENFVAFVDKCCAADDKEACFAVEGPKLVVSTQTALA

Kd (recombinant human TL1A [1]): 0.286 nM | koff (recombinant human TL1A [1]): 4.98e-05 s⁻¹ | kon (recombinant human TL1A [1]): 174000 M⁻¹ s⁻¹ | Kd [2]: 1.27 nM | koff [2]: 0.000121 s⁻¹ | kon [2]: 96400 M⁻¹ s⁻¹ | Kd (recombinant mouse TL1A): 295 nM | koff (recombinant mouse TL1A): 0.00708 s⁻¹ | kon (recombinant mouse TL1A): 24000 M⁻¹ s⁻¹ | Kd (recombinant human TL1A [3]): 0.54 nM | koff (recombinant human TL1A [3]): 6.21e-05 s⁻¹ | kon (recombinant human TL1A [3]): 114000 M⁻¹ s⁻¹ | koff (recombinant rat TL1A [4]): 0.0483 s⁻¹ | kon (recombinant rat TL1A [4]): 32200 M⁻¹ s⁻¹ | NFκB Bioassay IC50 (recombinant human TL1A [5]): 1.47 nM | Kd (recombinant rat TL1A [6]): ~1510 nM | binding result (bovine serum albumin): no binding (tested: 1e-6 M) | binding result (human serum albumin): no binding (tested: 1e-6 M)
B1: TL1A-0372 (bispecific antibody, human IgG1, kappa)
heavy 1: QVQLVQSGAEVKKPGASVKVSCKASGYDYTYYGISWVRQAPGQGLEWMGWISTYNTGTHYAPSLQGRVTMTTDTSTSTAYMELRSLRSDDTAVYYCARESYYGSGAFRGGMDVWGQGTTVTVSSASTKGPSVFPLAPSSKSTSGGTAALGCLVKDYFPEPVTVSWNSGALTSGVHTFPAVLQSSGLYSLSSVVTVPSSSLGTQTYICNVNHKPSNTKVDKKVEPKSCDKTHTCPPCPAPEAAGAPSVFLFPPKPKDTLMISRTPEVTCVVVDVSHEDPEVKFNWYVDGVEVHNAKTKPREEQYNSTYRVVSVLTVLHQDWLNGKEYKCKVSNKALPAPIEKTISKAKGQPREPQVCTLPPSREEMTKNQVSLWCLVKGFYPSDIAVEWESNGQPENNYKTTPPVLDSDGSFFLYSKLTVDKSRWQQGNVFSCSVLHEALHSHYTQKSLSLSPGK
heavy 2: not shown
light: not shown
notes: monovalent bispecific (null-arm) antibody, IgG1 KiH, LS

Kd (cynomolgus monkey IL-12): 0.368 nM | Kd (human IL-12): 0.156 nM | Kd (cynomolgus monkey IL-23): 0.317 nM | Kd (human IL-23): 0.16 nM
B2: p40-0003 (antibody, human IgG1, kappa, V domains shown)
VH: EVQLVQSGAEVKKPGESLKISCKGSGYSFTTYWLGWVRQMPGKGLDWIGIMSPVDSDIRYSPSFQGQVTMSVDKSITTAYLQWNSLKASDTAMYYCARRRPGQGYFDFWGQGTLVTVSS
VL: DIQMTQSPSSLSASVGDRVTITCRASQGISSWLAWYQQKPEKAPKSLIYAASSLQSGVPSRFSGSGSGTDFTLTISSLQPEDFATYYCQQYNIYPYTFGQGTKLEIKR
notes: human IgG1 effector-function-minimized/kappa; also called anti-IL12p40 p40-0003 antibody; C230 (ustekinumab) variable regions

TF-1 NF-κB reporter cell bioassay IC50 (recombinant human TL1A [7]): 34.7 nM | TF-1 NF-κB reporter cell bioassay, Bioactivity relative to TL1A-0002 (recombinant human TL1A [7]): 1 fold | Whole blood IFNγ assay IC50 (recombinant human TL1A [7]): 0.83 nM | Whole blood IFNγ assay, Bioactivity relative to TL1A-0002 (recombinant human TL1A [7]): 1 fold | Bioactivity relative to TL1A-0002 (recombinant human TL1A [8]): 1 fold | IC50 (recombinant human TL1A [8]): 5 nM | binding result [9]: binds
B3: TL1A-0002 (antibody, human IgG1, kappa, V domains shown)
VH: QVQLVQSGAEVKKPGASVKVSCKASGYDFTYYGISWVRQAPGQGLEWMGWISTYNGNTHYARMLQGRVTMTTDTSTRTAYMELRSLRSDDTAVYYCARENYYGSGAYRGGMDVWGQGTTVTVSS
VL: EIVLTQSPATLSLSPGERATLSCRASQSVSSYLAWYQQKPGQAPRLLIYDASNRATGIPARFSGSGSGTDFTLTISSLEPEDFAVYYCQQRSNWPWTFGQGTKVEIKR
notes: human IgG1 effector-function-minimized/kappa; also called parental TL1A-0002
